Measured values taken from US20170119790A1, “Agents, Uses and Methods” (CYTOGUIDE A/S, priority 2009, published 2017).

Columns and labels:
human CD163 R60D = biological target: T1, human CD163 R60D (Homo sapiens, UniProt Q86VB7, R112D); assay: Western blotting of human CD163 and knock out mutants; assay type: binding
T1 construct: a pcDNA5-FRT-humanCD163 plasmid harboring the full length human CD163 cDNA; expressed in transfected cells; host or cells: HEK 293, transient
Text: (§1) For the mutant generation the Site-directed Ligation Independent Mutagenesis (SLIM) method was used (1). Primers are listed in the primer table. The template for the generation of the two first mutants was a pcDNA5-FRT-humanCD163 plasmid harboring the full length human CD163 cDNA. The primers LKI FT, RT, F, and R were used to generate the mutant plasmid pcDNA5-FRT-humanCD163 (VKVQEE-->LKIHEK). The primers R60D FT, RT, F, and R were used to generate the mutant plasmid pcDNA5-FRT-humanCD163 (R60D). Generation of a double mutant was done by performing a SLIM reaction on pcDNA5-FRT-humanCD163 (VKVQEE-->LKIHEK) with the primers R60D FT, RT, F, and R.
(§2) Each cell pellet was added 1 ml lysis buffer (10 mM Tris pH 8, 140 mM NaCl, 15 mM MgSO4, 1% Triton X-100) and incubated for 15 min at 4 °C with rotation. After centrifugation for 30 min at 6000 rpm the supernatants were sterile filtered.
(§3) 90 μl of each of the supernatants were added 30 μl of 4×LDS sample buffer. 3×20 μl samples of each supernatant and 8 μl SeeBlue plus2 prestained marker were loaded on NuPage 4-12% Bis-Tris-Gels (Invitrogen, Taastrup, Denmark) and the SDS-PAGEs were run with MOPS running buffer according to instructions of the manufacturer (200 V constant for 50 min). Blotting to PVDF membranes (Invitrogen, Taastrup, Denmark) was done on an iBLOT device according to instructions of the manufacturer. […]

[1] = biological target: T2, human CD163 LKIHEK containing mutants (VKVQEE-->LKIHEK and double mutant) (Homo sapiens, UniProt Q86VB7, E71K/Q69H/V66L/V68I); assay: as above; assay type: binding
T2 construct: a pcDNA5-FRT-humanCD163 plasmid harboring the full length human CD163 cDNA; expressed in transfected cells; host or cells: HEK 293, transient
Text: as §1, §2, §3

[2] = system: TNF production of pro-inflammatory macrophages; assay: Inhibition of LPS induction of TNF production in in vitro matured pro-inflammatory macrophages; assay type: cell-based, human; conditions: compared with free dexamethasone / buffer, FIG. 30-31
Method: Monocytes were obtained from MNC after isolation using Dynal Monocyte Negative
Monocytes were resuspended in RMPI 1640 medium (Sigma-Aldrich, Brøndby, Denmark) containing 20% fetal calf serum (FCS) supplemented with 100 ng/ml M-CSF (GenScript Corporation, New Jersey, USA) and penicillin/streptomycin (pen/strep) for 7 days. The first 3 days in Tissue Culture Flasks at 37° C. and 5% CO2. The monocytes were then detached from the flask by flushing and scraping. The monocytes were divided into smaller portions and further grown for four days. 0.9×10^5 cells per well were grown in 96 well tissue culture plates for TNF CBA use.
Subsequently, the macrophages were activated in RMPI 1640 containing 5% FCS, 1 ug/ml lipopolysaccaride (LPS) (Sigma-Aldrich, Brøndby, Denmark) and 20 ng/ml INF-gamma (Genscript Corporation, New Jersey, USA) for 18 hours making them pro-inflammatory.
The pro-inflammatory macrophages were stimulated with RMPI160, 5% FCS, 1 ug/ml LPS and 20 ng/ml INF-gamma containing either dexamethasone, Ab-dexamethasone or no drug.
To detect the change in soluble TNF-alpha concentration we used the Cytometry Bead Array Kit (BD Biosciences, New Jersey, USA). The media from the in vitro stimulated macrophages (described earlier) grown in 96 well tissue culture plates were analyzed according to the manufacturer's protocol.

[3] = system: non-transfected Flp-In CHO cells; assay: Cellular binding and uptake of 125I-labeled anti-CD163, control cells; assay type: cell-based, Chinese hamster; conditions: 125I-labelled mAb
Text: Endocytosis of ^125I-labeled anti-CD163 was investigated in CD163 transfected Flp-In Chinese hamster ovary (CHO) cells and mock-transfected Flp-In as described (Madsen, M., Moller, H. J., Nielsen, M. J., Jacobsen, C., Graversen, J. H., van den Berg, T. and Moestrup, S. K. (2004) Molecular characterization of the haptoglobin.hemoglobin receptor CD163. Ligand binding properties of the scavenger receptor cysteine-rich domain region. J. Biol. Chem., 279, 51561-51567.)

T2 sequence (Q86VB7 42-1156 V66L/V68I/Q69H/E71K): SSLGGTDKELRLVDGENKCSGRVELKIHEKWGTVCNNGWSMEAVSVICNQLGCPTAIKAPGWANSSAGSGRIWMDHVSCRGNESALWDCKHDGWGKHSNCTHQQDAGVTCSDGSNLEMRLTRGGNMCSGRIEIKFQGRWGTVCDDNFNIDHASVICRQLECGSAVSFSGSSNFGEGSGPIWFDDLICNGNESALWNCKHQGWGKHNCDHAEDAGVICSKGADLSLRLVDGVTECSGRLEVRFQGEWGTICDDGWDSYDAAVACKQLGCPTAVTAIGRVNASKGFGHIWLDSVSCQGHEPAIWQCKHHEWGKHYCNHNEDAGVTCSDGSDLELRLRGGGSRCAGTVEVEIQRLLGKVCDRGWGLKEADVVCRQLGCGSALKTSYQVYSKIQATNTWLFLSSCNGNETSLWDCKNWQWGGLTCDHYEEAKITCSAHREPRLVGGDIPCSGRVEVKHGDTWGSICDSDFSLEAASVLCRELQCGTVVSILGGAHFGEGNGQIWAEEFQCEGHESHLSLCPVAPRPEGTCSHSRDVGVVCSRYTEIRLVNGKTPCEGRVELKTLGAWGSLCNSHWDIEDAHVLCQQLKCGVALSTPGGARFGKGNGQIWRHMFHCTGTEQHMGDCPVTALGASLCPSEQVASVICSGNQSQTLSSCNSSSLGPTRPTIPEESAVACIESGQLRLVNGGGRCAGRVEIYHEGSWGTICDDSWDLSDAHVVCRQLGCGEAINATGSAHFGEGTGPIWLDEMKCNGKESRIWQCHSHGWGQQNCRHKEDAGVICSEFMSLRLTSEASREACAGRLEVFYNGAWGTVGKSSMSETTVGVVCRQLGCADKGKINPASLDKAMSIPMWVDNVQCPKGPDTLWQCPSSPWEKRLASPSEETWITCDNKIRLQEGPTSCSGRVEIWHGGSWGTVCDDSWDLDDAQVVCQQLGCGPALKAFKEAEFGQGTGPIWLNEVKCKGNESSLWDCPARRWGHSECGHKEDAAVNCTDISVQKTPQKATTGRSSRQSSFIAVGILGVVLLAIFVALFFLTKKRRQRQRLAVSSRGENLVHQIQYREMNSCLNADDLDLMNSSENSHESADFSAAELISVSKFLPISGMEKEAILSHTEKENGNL
T1 sequence (Q86VB7 42-1156 R112D): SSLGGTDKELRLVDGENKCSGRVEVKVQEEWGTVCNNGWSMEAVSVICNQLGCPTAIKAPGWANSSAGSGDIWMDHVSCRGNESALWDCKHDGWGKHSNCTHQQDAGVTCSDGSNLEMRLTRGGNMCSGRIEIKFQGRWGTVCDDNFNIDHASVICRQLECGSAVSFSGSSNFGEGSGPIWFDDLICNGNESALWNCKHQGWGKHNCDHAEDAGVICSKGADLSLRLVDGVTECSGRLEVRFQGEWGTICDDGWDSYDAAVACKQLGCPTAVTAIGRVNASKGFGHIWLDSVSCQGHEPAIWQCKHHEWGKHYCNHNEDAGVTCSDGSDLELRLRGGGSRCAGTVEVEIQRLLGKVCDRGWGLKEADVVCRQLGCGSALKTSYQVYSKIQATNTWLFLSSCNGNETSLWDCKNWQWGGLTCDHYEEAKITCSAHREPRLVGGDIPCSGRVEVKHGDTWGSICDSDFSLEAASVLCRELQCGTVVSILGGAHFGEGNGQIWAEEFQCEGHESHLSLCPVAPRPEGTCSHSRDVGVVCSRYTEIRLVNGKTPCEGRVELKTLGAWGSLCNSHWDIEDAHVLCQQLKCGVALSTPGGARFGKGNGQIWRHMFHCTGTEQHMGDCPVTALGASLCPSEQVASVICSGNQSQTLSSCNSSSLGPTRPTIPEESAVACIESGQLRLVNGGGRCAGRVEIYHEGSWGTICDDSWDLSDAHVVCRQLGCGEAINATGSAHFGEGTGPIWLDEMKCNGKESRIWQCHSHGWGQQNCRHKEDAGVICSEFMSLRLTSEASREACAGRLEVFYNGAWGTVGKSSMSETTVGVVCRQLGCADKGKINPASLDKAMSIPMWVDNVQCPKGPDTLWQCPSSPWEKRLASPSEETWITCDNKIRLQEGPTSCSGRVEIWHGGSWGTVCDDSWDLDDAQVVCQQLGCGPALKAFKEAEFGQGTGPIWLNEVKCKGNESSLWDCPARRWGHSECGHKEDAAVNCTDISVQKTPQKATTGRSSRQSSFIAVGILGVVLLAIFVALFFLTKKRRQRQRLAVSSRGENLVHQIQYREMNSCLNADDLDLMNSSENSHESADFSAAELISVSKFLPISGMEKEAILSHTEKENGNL

B1: MAC2-158: anti-human CD163 murine mAb, binds SRCR domain 1, IQ Products; VH SEQ ID NO: 1, VL SEQ ID NO: 2 (antibody, V domains shown)
VH: DVQLQESGPGLVKPSQSLSLTCTVTGYSITSDYAWNWIRQFPGNKLEWMGYITYSGITNYNPSLKSQISITRDTSKNQFFLQLNSVTTEDTATYYCVSGTYYFDYWGQGTTLTVSS
VL: SVVMTQTPKSLLISIGDRVTITCKASQSVSSDVAWFQQKPGQSPKPLIYYASNRYTGVPDRFTGSGYGTDFTFTISSVQAEDLAVYFCGQDYTSPRTFGGGTKLEIKRA
modifications: Mac2-158 VH; Mac2-158 VL
binding in western blot (human CD163 R60D): very weak
binding in western blot [1]: No binding was detected
effect on TNF production of macrophages [2]: no effect different from buffer
percentage of cell-associated radioactivity reached [3]: 1.37%
